Results taken from US20190177417A1 (BIOATLA, published 2019).

Columns and labels:
Axl protein [1] = target: T1, Axl protein (human, UniProt P30530 26-451); assay: ELISA, 1:3 dilution, pH 6.0 over pH 7.4
T1 construct: extracellular domain; also called human Axl; hAxl
T1 sequence (looked up): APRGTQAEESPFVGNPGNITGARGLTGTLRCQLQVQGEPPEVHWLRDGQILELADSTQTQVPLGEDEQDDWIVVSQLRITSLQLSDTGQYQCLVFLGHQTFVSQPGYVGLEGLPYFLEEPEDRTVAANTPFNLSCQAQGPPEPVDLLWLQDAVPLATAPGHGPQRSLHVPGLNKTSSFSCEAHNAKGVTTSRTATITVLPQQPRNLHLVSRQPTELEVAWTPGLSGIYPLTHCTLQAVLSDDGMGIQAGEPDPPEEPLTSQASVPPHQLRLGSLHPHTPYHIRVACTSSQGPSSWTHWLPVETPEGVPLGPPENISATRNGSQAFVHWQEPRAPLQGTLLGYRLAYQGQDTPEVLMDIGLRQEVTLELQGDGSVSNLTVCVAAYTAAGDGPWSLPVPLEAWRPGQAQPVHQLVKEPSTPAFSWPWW

Axl protein [2] = target: T1, Axl protein; assay: ELISA, 1:9 dilution, pH 6.0 over pH 7.4

B1: HC-T030A (antibody, V domains shown)
VH: EVQLVQSGAEVKKPGATVKISCKVSGYSFAGHTMNWIRQPPGKGLEWIGLIKPSNGGTSYNQKFKGRVTISADKSISTAYLQWSSLKASDTAMYYCAHGHYESYFAMDYWGQGTLVTVSS
VL: DIQMTQSPSSLSASVGDRVTITCKASQDVSSAVAWYQQKPGQAPRLLIYWASTRHTGVPSRFSGSGSGTEFTLTISSLQPDDFATYYCQEHFSTPLTFGQGTKVEIK
- Affinity ELISA CPE mutant ratio (1:3, pH 6.0/7.4) (Axl protein [1]): 1.29 ratio
- Affinity ELISA CPE mutant ratio (1:9, pH 6.0/7.4) (Axl protein [2]): 1.76 ratio

B2: HC-S059T (antibody, V domains shown)
VH: EVQLVQSGAEVKKPGATVKISCKVSGYSFTGHTMNWIRQPPGKGLEWIGLIKPSNGGTTYNQKFKGRVTISADKSISTAYLQWSSLKASDTAMYYCAHGHYESYFAMDYWGQGTLVTVSS
VL: DIQMTQSPSSLSASVGDRVTITCKASQDVSSAVAWYQQKPGQAPRLLIYWASTRHTGVPSRFSGSGSGTEFTLTISSLQPDDFATYYCQEHFSTPLTFGQGTKVEIK
- Affinity ELISA CPE mutant ratio (1:3, pH 6.0/7.4) (Axl protein [1]): 1.02 ratio
- Affinity ELISA CPE mutant ratio (1:9, pH 6.0/7.4) (Axl protein [2]): 1.93 ratio

B3: HC-H100E (antibody, V domains shown)
VH: EVQLVQSGAEVKKPGATVKISCKVSGYSFTGHTMNWIRQPPGKGLEWIGLIKPSNGGTSYNQKFKGRVTISADKSISTAYLQWSSLKASDTAMYYCAHGEYESYFAMDYWGQGTLVTVSS
VL: DIQMTQSPSSLSASVGDRVTITCKASQDVSSAVAWYQQKPGQAPRLLIYWASTRHTGVPSRFSGSGSGTEFTLTISSLQPDDFATYYCQEHFSTPLTFGQGTKVEIK
- Affinity ELISA CPE mutant ratio (1:3, pH 6.0/7.4) (Axl protein [1]): 2.77 ratio
- Affinity ELISA CPE mutant ratio (1:9, pH 6.0/7.4) (Axl protein [2]): 3.62 ratio

B4: HC-H100D (antibody, V domains shown)
VH: EVQLVQSGAEVKKPGATVKISCKVSGYSFTGHTMNWIRQPPGKGLEWIGLIKPSNGGTSYNQKFKGRVTISADKSISTAYLQWSSLKASDTAMYYCAHGDYESYFAMDYWGQGTLVTVSS
VL: DIQMTQSPSSLSASVGDRVTITCKASQDVSSAVAWYQQKPGQAPRLLIYWASTRHTGVPSRFSGSGSGTEFTLTISSLQPDDFATYYCQEHFSTPLTFGQGTKVEIK
- Affinity ELISA CPE mutant ratio (1:3, pH 6.0/7.4) (Axl protein [1]): 2.42 ratio
- Affinity ELISA CPE mutant ratio (1:9, pH 6.0/7.4) (Axl protein [2]): 3.09 ratio

B5: HC-S103M (antibody, V domains shown)
VH: EVQLVQSGAEVKKPGATVKISCKVSGYSFTGHTMNWIRQPPGKGLEWIGLIKPSNGGTSYNQKFKGRVTISADKSISTAYLQWSSLKASDTAMYYCAHGHYEMYFAMDYWGQGTLVTVSS
VL: DIQMTQSPSSLSASVGDRVTITCKASQDVSSAVAWYQQKPGQAPRLLIYWASTRHTGVPSRFSGSGSGTEFTLTISSLQPDDFATYYCQEHFSTPLTFGQGTKVEIK
- Affinity ELISA CPE mutant ratio (1:3, pH 6.0/7.4) (Axl protein [1]): 1.78 ratio
- Affinity ELISA CPE mutant ratio (1:9, pH 6.0/7.4) (Axl protein [2]): 1.81 ratio

B6: HC-S103N (antibody, V domains shown)
VH: EVQLVQSGAEVKKPGATVKISCKVSGYSFTGHTMNWIRQPPGKGLEWIGLIKPSNGGTSYNQKFKGRVTISADKSISTAYLQWSSLKASDTAMYYCAHGHYENYFAMDYWGQGTLVTVSS
VL: DIQMTQSPSSLSASVGDRVTITCKASQDVSSAVAWYQQKPGQAPRLLIYWASTRHTGVPSRFSGSGSGTEFTLTISSLQPDDFATYYCQEHFSTPLTFGQGTKVEIK
- Affinity ELISA CPE mutant ratio (1:3, pH 6.0/7.4) (Axl protein [1]): 1.07 ratio
- Affinity ELISA CPE mutant ratio (1:9, pH 6.0/7.4) (Axl protein [2]): 3.18 ratio

B7: HC-P053N (antibody, V domains shown)
VH: EVQLVQSGAEVKKPGATVKISCKVSGYSFTGHTMNWIRQPPGKGLEWIGLIKNSNGGTSYNQKFKGRVTISADKSISTAYLQWSSLKASDTAMYYCAHGHYESYFAMDYWGQGTLVTVSS
VL: DIQMTQSPSSLSASVGDRVTITCKASQDVSSAVAWYQQKPGQAPRLLIYWASTRHTGVPSRFSGSGSGTEFTLTISSLQPDDFATYYCQEHFSTPLTFGQGTKVEIK
- Affinity ELISA CPE mutant ratio (1:3, pH 6.0/7.4) (Axl protein [1]): 1.4 ratio
- Affinity ELISA CPE mutant ratio (1:9, pH 6.0/7.4) (Axl protein [2]): 1.89 ratio

B8: HC-E102N (antibody, V domains shown)
VH: EVQLVQSGAEVKKPGATVKISCKVSGYSFTGHTMNWIRQPPGKGLEWIGLIKPSNGGTSYNQKFKGRVTISADKSISTAYLQWSSLKASDTAMYYCAHGHYNSYFAMDYWGQGTLVTVSS
VL: DIQMTQSPSSLSASVGDRVTITCKASQDVSSAVAWYQQKPGQAPRLLIYWASTRHTGVPSRFSGSGSGTEFTLTISSLQPDDFATYYCQEHFSTPLTFGQGTKVEIK
- Affinity ELISA CPE mutant ratio (1:3, pH 6.0/7.4) (Axl protein [1]): 1.52 ratio
- Affinity ELISA CPE mutant ratio (1:9, pH 6.0/7.4) (Axl protein [2]): 1.57 ratio

B9: HC-E102L (antibody, V domains shown)
VH: EVQLVQSGAEVKKPGATVKISCKVSGYSFTGHTMNWIRQPPGKGLEWIGLIKPSNGGTSYNQKFKGRVTISADKSISTAYLQWSSLKASDTAMYYCAHGHYLSYFAMDYWGQGTLVTVSS
VL: DIQMTQSPSSLSASVGDRVTITCKASQDVSSAVAWYQQKPGQAPRLLIYWASTRHTGVPSRFSGSGSGTEFTLTISSLQPDDFATYYCQEHFSTPLTFGQGTKVEIK
- Affinity ELISA CPE mutant ratio (1:3, pH 6.0/7.4) (Axl protein [1]): 3.27 ratio
- Affinity ELISA CPE mutant ratio (1:9, pH 6.0/7.4) (Axl protein [2]): 2.7 ratio

B10: HC-N035I (antibody, V domains shown)
VH: EVQLVQSGAEVKKPGATVKISCKVSGYSFTGHTMIWIRQPPGKGLEWIGLIKPSNGGTSYNQKFKGRVTISADKSISTAYLQWSSLKASDTAMYYCAHGHYESYFAMDYWGQGTLVTVSS
VL: DIQMTQSPSSLSASVGDRVTITCKASQDVSSAVAWYQQKPGQAPRLLIYWASTRHTGVPSRFSGSGSGTEFTLTISSLQPDDFATYYCQEHFSTPLTFGQGTKVEIK
- Affinity ELISA CPE mutant ratio (1:3, pH 6.0/7.4) (Axl protein [1]): 2.81 ratio
- Affinity ELISA CPE mutant ratio (1:9, pH 6.0/7.4) (Axl protein [2]): 1.12 ratio

B11: HC-E102R (antibody, V domains shown)
VH: EVQLVQSGAEVKKPGATVKISCKVSGYSFTGHTMNWIRQPPGKGLEWIGLIKPSNGGTSYNQKFKGRVTISADKSISTAYLQWSSLKASDTAMYYCAHGHYRSYFAMDYWGQGTLVTVSS
VL: DIQMTQSPSSLSASVGDRVTITCKASQDVSSAVAWYQQKPGQAPRLLIYWASTRHTGVPSRFSGSGSGTEFTLTISSLQPDDFATYYCQEHFSTPLTFGQGTKVEIK
- Affinity ELISA CPE mutant ratio (1:3, pH 6.0/7.4) (Axl protein [1]): 3.7 ratio
- Affinity ELISA CPE mutant ratio (1:9, pH 6.0/7.4) (Axl protein [2]): 3.42 ratio

B12: HC-H100W (antibody, V domains shown)
VH: EVQLVQSGAEVKKPGATVKISCKVSGYSFTGHTMNWIRQPPGKGLEWIGLIKPSNGGTSYNQKFKGRVTISADKSISTAYLQWSSLKASDTAMYYCAHGWYESYFAMDYWGQGTLVTVSS
VL: DIQMTQSPSSLSASVGDRVTITCKASQDVSSAVAWYQQKPGQAPRLLIYWASTRHTGVPSRFSGSGSGTEFTLTISSLQPDDFATYYCQEHFSTPLTFGQGTKVEIK
- Affinity ELISA CPE mutant ratio (1:3, pH 6.0/7.4) (Axl protein [1]): 4.94 ratio
- Affinity ELISA CPE mutant ratio (1:9, pH 6.0/7.4) (Axl protein [2]): 5.91 ratio

B13: HC-H100R (antibody, V domains shown)
VH: EVQLVQSGAEVKKPGATVKISCKVSGYSFTGHTMNWIRQPPGKGLEWIGLIKPSNGGTSYNQKFKGRVTISADKSISTAYLQWSSLKASDTAMYYCAHGRYESYFAMDYWGQGTLVTVSS
VL: DIQMTQSPSSLSASVGDRVTITCKASQDVSSAVAWYQQKPGQAPRLLIYWASTRHTGVPSRFSGSGSGTEFTLTISSLQPDDFATYYCQEHFSTPLTFGQGTKVEIK
- Affinity ELISA CPE mutant ratio (1:3, pH 6.0/7.4) (Axl protein [1]): 1.88 ratio
- Affinity ELISA CPE mutant ratio (1:9, pH 6.0/7.4) (Axl protein [2]): 2.51 ratio

B14: HC-E102V (antibody, V domains shown)
VH: EVQLVQSGAEVKKPGATVKISCKVSGYSFTGHTMNWIRQPPGKGLEWIGLIKPSNGGTSYNQKFKGRVTISADKSISTAYLQWSSLKASDTAMYYCAHGHYVSYFAMDYWGQGTLVTVSS
VL: DIQMTQSPSSLSASVGDRVTITCKASQDVSSAVAWYQQKPGQAPRLLIYWASTRHTGVPSRFSGSGSGTEFTLTISSLQPDDFATYYCQEHFSTPLTFGQGTKVEIK
- Affinity ELISA CPE mutant ratio (1:3, pH 6.0/7.4) (Axl protein [1]): 1.93 ratio
- Affinity ELISA CPE mutant ratio (1:9, pH 6.0/7.4) (Axl protein [2]): 2.51 ratio

B15: HC-W110H (antibody, V domains shown)
VH: EVQLVQSGAEVKKPGATVKISCKVSGYSFTGHTMNWIRQPPGKGLEWIGLIKPSNGGTSYNQKFKGRVTISADKSISTAYLQWSSLKASDTAMYYCAHGHYESYFAMDYHGQGTLVTVSS
VL: DIQMTQSPSSLSASVGDRVTITCKASQDVSSAVAWYQQKPGQAPRLLIYWASTRHTGVPSRFSGSGSGTEFTLTISSLQPDDFATYYCQEHFSTPLTFGQGTKVEIK
- Affinity ELISA CPE mutant ratio (1:3, pH 6.0/7.4) (Axl protein [1]): 7.99 ratio
- Affinity ELISA CPE mutant ratio (1:9, pH 6.0/7.4) (Axl protein [2]): 0.932 ratio

B16: HC-S059I (antibody, V domains shown)
VH: EVQLVQSGAEVKKPGATVKISCKVSGYSFTGHTMNWIRQPPGKGLEWIGLIKPSNGGTIYNQKFKGRVTISADKSISTAYLQWSSLKASDTAMYYCAHGHYESYFAMDYWGQGTLVTVSS
VL: DIQMTQSPSSLSASVGDRVTITCKASQDVSSAVAWYQQKPGQAPRLLIYWASTRHTGVPSRFSGSGSGTEFTLTISSLQPDDFATYYCQEHFSTPLTFGQGTKVEIK
- Affinity ELISA CPE mutant ratio (1:3, pH 6.0/7.4) (Axl protein [1]): 30.5 ratio
- Affinity ELISA CPE mutant ratio (1:9, pH 6.0/7.4) (Axl protein [2]): 2.06 ratio

B17: HC-S103D (antibody, V domains shown)
VH: EVQLVQSGAEVKKPGATVKISCKVSGYSFTGHTMNWIRQPPGKGLEWIGLIKPSNGGTSYNQKFKGRVTISADKSISTAYLQWSSLKASDTAMYYCAHGHYEDYFAMDYWGQGTLVTVSS
VL: DIQMTQSPSSLSASVGDRVTITCKASQDVSSAVAWYQQKPGQAPRLLIYWASTRHTGVPSRFSGSGSGTEFTLTISSLQPDDFATYYCQEHFSTPLTFGQGTKVEIK
- Affinity ELISA CPE mutant ratio (1:3, pH 6.0/7.4) (Axl protein [1]): 4.24 ratio
- Affinity ELISA CPE mutant ratio (1:9, pH 6.0/7.4) (Axl protein [2]): 2.23 ratio

B18: HC-E102Y (antibody, V domains shown)
VH: EVQLVQSGAEVKKPGATVKISCKVSGYSFTGHTMNWIRQPPGKGLEWIGLIKPSNGGTSYNQKFKGRVTISADKSISTAYLQWSSLKASDTAMYYCAHGHYYSYFAMDYWGQGTLVTVSS
VL: DIQMTQSPSSLSASVGDRVTITCKASQDVSSAVAWYQQKPGQAPRLLIYWASTRHTGVPSRFSGSGSGTEFTLTISSLQPDDFATYYCQEHFSTPLTFGQGTKVEIK
- Affinity ELISA CPE mutant ratio (1:3, pH 6.0/7.4) (Axl protein [1]): 2.61 ratio
- Affinity ELISA CPE mutant ratio (1:9, pH 6.0/7.4) (Axl protein [2]): 1.99 ratio
